Reference: the nanobody polyreactivity screen of Harvey et al. (2022)

Assay: yeast display, Sf9 membrane polyspecificity reagent, FACS + sequencing; frameworks hold sequencing errors
Outline: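 Galactose-induced (36–48 hours) yeast carrying a synthetic nanobody display library were exposed to 10% biotinylated, detergent-solubilized Sf9 membrane reagent at 4 °C for 1 hour. FACS followed streptavidin microbead enrichment, using low and high (top ~1%) gates for expression (anti-HA) and reagent binding (streptavidin). Colony PCR, MiSeq 2 × 250 sequencing and CDR-length filtering followed. Labels for polyreactivity reflect the gate of origin.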

| Sequence | polyreactivity (PSR sort gate) |
| --- | --- |
| QVQLVESGGGLVQAGGSLRLSCAASGSTITRYAMGWYRQAPGKERELVAVISRSGGSTYYADSVKGRFTISRDNAKNTVYLQMNSLKPEDTAVYYCAAKYYGGRRSPYSYGYWGQGTQVTVSS | high polyreactivity |
| QFQLVESGGGLVQAGGSLRLSCAASGRIFYYYAMGWDRQAPGKERELVASINSVGTTTYADSVKGRFTISRDNAKNTVYLQMNSLKPEDTAVYYCARDTGSIYYDGYEYDYWGQGTQVTVSS | low polyreactivity |
| QVQLVESGGGLVQAGGSLRLSCAASGSIFTTNAMGWYRQAPGKERELVARIDRAGSTYYADSVKGRFTISRDNAKNTVYLQMNSLKPVDTAVYYCAVEAVLSRPYATKFDYWGQGTQVNVSS | low polyreactivity |
| QVQLVESGGGLVQAGGSLRLSCAASGRTFVFYAMGWYRPAPGKERQLVAAITSGTSTNYADSVKGRFTISRDNAKNTGYLQMNSLNPEDTAVYYCAAYWTDLTYSIGFGYWGQGTQVTVSS | low polyreactivity |
| QVQLVESGGGLLQAGGSLRLSCAASGRIFTWNAMGWYRQAPGKERELVARISSGTPTNYADSLKGRFTISRDNAKNTVYLQMNCLKPEDTAVYYCAAQSRPPFVKQYWWQRDYWGQATQVTVSS | high polyreactivity |
| QVQLVESGGGLVQAGGSLRLSCAASGITFYFYAMGWSRQAPGKERELVSTISGGGSTSYADSVKGRFTISRDNAKNSVYLQMNSLKPEDTAVYYCAATGYSLRSGKRRPLRSGYYYWGQGTQVTVSW | high polyreactivity |
| QVQLQESGGGLVQAGGSPRLSCAASDNIFPDSVMCWYRQAPGKERELVATIGFGATTNYADSVKGRFTISRDNAKNTVYLQMNSLKPEDTAVYYCAADPLIYEYFCYWGQGSQVTVSS | low polyreactivity |
| QVQLVESGGGLVQAGRSLRLSCAASGFTFLVYAMGWYRQAPGTERELVAAMSNGGSTNYADSVKGRFTITRDTAKNTVYLHMNSLKPEDTAVYYCAADDPRDHWYTAMDYWGQGTQVTVSS | low polyreactivity |
| QVQLVESGGGLVQAGGSLRLSCAASGSIFWYNAMGWYRQAPGKERELVAAIDRSGGNTYYADSVKGRFTISRDNAKNTVYLQMNSLKPEDTAVYYCARRIGRTYRYVYWGQGTQVTVSS | high polyreactivity |
| QVQLVESGGGLVQAGGILRLSCAASGFTFPWYTMGWYRQAPGKERELVAAISKSGGSTYYADSVKGRFTISRDNAKNTVFLQMNSLKPEDTAVYYCAARGNLYVGGDERFWGQGTQVTVSS | high polyreactivity |
| QFQLVESGGGLVQAGGSLRLSSAASGFTFIRYAMGWYRPAPGKERELVAAITVSGTRTYYADSVKGRFTISRDNAKNTVYLQMNSLKPEDTAVYYCNARDVYTGYGMGYWGQGTQVTVSS | high polyreactivity |
| QVQLVESGGGLVQAGGSLRLSCAASGSTFVPNAMGWYRQAPGKERELVAAISRSAGSTYYADSVKGRFTISRDNAKNTVYLQMNSLKPEDTAVYYCAAVSLTYIAYDYWGQGTQVTVSS | high polyreactivity |
| QVQLVESGGGLVQAGGSLRLSCAASGYTFYANAMGWYRQAPGKEREFVASINYSGGSTYYADSVKGRFTISRDNAKNTVYLQINSLKPEDTSVYYCAARTGTLDDWDYAYDYWGQGTQVTVSS | low polyreactivity |
| QVQLVESGGGLVQAGGSLRLSCAASGFTFWYYAMGWYRQAPGKERELVAAISWSGVSTYYADSVKGRFTISRDNAKNTVYLQMNSLKPEDTAVYYCNRRARSYADDYWGQGTQVTVSS | high polyreactivity |
| QVQLVESVGGLVQAGGSLRLSCAASGFIFRPYAMGWSRQAPGKERELVAAISWSGDRTYYADSVKGRFTISRDNAKNTVYLQMNSLKPEDTAVYYCAAEGVTRDYDYWGQGTQVTVSS | low polyreactivity |
| QVQLVESGGGLVQAGGSLRLSCAASGLTFGHYAMGWYRQAPGKERELVATISSRGVSTRYADSVKGRFTISRDNAKNTVYLQMNSLKPEDTAVYYCNARDYTWGKYYSSKIGYYYWGQGTQVTVSS | high polyreactivity |
| QVQLEESGAGLVQAGGSLRLSCAPSGIIYDGNAMGWYRKAPGKERELLASITSDSSTNYADSVKGRFTISRDNAKYTVYLHMNSLKPQDTAVYYCAADHWIAPRRDYWGQGTQVTVSS | low polyreactivity |
| QVQLVESGGGLVQAGGSLRLSCAASGRIFYGNAMGWYRQAPGKERELVAAISSGGGSTYYADSVKGRFTISRDNAKNTVYLQMNSLKPEDTAVYYCAADPVHRFPGTGGYWGQGTQVTVSS | low polyreactivity |
| QVQLVESGGGLVQAGGSLRLSCAASGRTFANNAMGWYRQAPGKERELVAAISFSTVSTYYADSVKGRFTISRDNAKYTVYLQMNSLKPEDTAVYYCAARRLGYYRKVKELVYWGQGTQVTVSS | high polyreactivity |
| QVQLVESGGGLVQAGGSLRLSCAASGSIFSWNAMGWYRQAPGKERELVAGITWSGGGTSYADSVKGRFTISRDNAKNTVYLQMNSLKPEDTAVYYCAKEWIFDFNYWGQGTQVTVSS | low polyreactivity |
| QVQLVESGGGLVQAGGSLRLSGAASGRTFGYYAMGWYRQAPGKERELVAAISRGGSTYYADSVKGRFTISRDNAKNTVYLQMNSPKPEDTAVYYCAADYWGYGPEMGYWGQGTQVTVSS | low polyreactivity |
| QVQLVESGGGLVQAGGSLRLSCAASGRILKRYAMGWYRQAPGKERELVAAINWNGGSTYYADSVKGRFTISRDNAKNTVYLQMNSLKPEDTAVYYCAAYYGTPRGFDYWGQGTQVTVSS | high polyreactivity |

| Sequence | polyreactivity (PSR sort gate) |
| --- | --- |
| QVQLVESGGGLVQAGGSLRLSCSASGYTFAWYAMGWYRQAPGKERELVAAITVSGGSTYYADSVKGRFTISRDNAKNTVYLQMNSLKPEDTAVYYCAADYAPLDLYQVSTVYSSGDYWGQGTQVTVSS | low polyreactivity |
| QVQLVESGGGLVQAGGRLRLSCAASGRTLSRYAMGWYRQAPGKERELVAAINNGGNTNYADSVKGRFTISRDNAKNTVYLQMNSLKPEDTAVYYCAVRWYPRYGSSYDYWGQGTQVTVSS | high polyreactivity |
| QVQLVESGGGLVQAGGSLRLSCAASGIFVDNAMGWYRQAPGKERELVAAITSSTDSTYYADSVKGRFAISRDNAKNTVYLQMNSLKPEDTAVDYCAVARPGGFYFLVHYGYGYWGQGTQVTVSS | low polyreactivity |
| QVQLVESGGGLVQAGGSLRLSCAASGSIFRYYAMGWYRQAPGKEREFVARISVSGGSTYYADSVKGRFTISRDNAKNAVYLQMNSLKPEDTAVYYCNTADFRSRYPAMGYWGQGTQVNVSS | low polyreactivity |
| QVQLVESGGGLVHAGGTLRLTCAASGFIFKRYTLGWYRQAPGQERELFATINRNGGNTYYADSVKGRFTISRDNAKNTVYLQMNILKPEDTSVYYCNARYWRAQGWPGYDYWGQGTQVTVSS | high polyreactivity |
| QVQLEDSGGGLVQAGGSLRLSCAASGRTFHRNAMGWYRQAPGKERELVAAITGSGGSTYYADSVKGRFTISRDNAKNTVYLQMNSLKPEDTAVYYCATYSYPERTGGQRTHYYWGQGTQVTVSS | high polyreactivity |
| QVHLVESGGGLVQAGGSLRLSCAASASIFGSNAMGWYRQAPGKDRELVAAITWSDGSTYYADSVKGRFTISRDNAKNTVYLQMNSLKPDDTAVYYCSSDYGYSWYDYWGQGTQVTVSS | low polyreactivity |
| QVQLVESGGGLVQAGGSLRLSCAASGSIFGGNAMGWYRQAPGKERELVAVISWSGGSTYYADSVKGRFTISRDNAKNTVYVQMNSLKPEDTAVYYCATSSVAEAKYVTEGTFDYWGQGTQVTVSS | low polyreactivity |
| QVQLVESGGGLLQAGGSLRLSCAASGGTFERNAMGWYRQAPGKERELVAAISISGGRTYYADSVKGRFTISRDNAKNTVYLQMKSLKPEDTAVYFCAAGVGSRIKQVGNDYWGQGTQVTVSS | high polyreactivity |
| QVQLVESGGGLVQAGGSLRLSCAASGAIFFSYAMGWYRQAPGKERELVAAIRTNGGTTYYADSVKGRFTISRDNAKNTVYLQMNSLKPEDTAVYYCAALPGGYYDRGEYDYWGQGTQVTVSS | low polyreactivity |
| QVQLVESGGGLVQAGGSLRLSCAASGSTFSSYAMGWYRQAPGKERELVAAISTRSGSTYYADSVKGRFTISRDNAKNTVYLQMNSLKPEDTAVYYCAADGFYYDDGYWGQGTQVTVSS | low polyreactivity |
| QVQLVESGGGLVQAGGSLRLSCAASGIIFSYYAMGWYRQAPGKERELVAAISSSGVSTNYADSVKGRFTISRDNAKNTVYLQMNSLKPEDTAVYYCNGRGYYWYRPYVNSNGGYWGQGTQVTVSS | high polyreactivity |
| QVQLVESGGGLVQAGGSLRLSCAASGNIFETNAMGWYRQAPGKERELVAAITRSGGSTYYADSVKGRFTISRDNAKNTVYLQMNSLKPEDTAVYYCAYYPYGYDYWGQGTQVTVSS | high polyreactivity |
| QVQLVETGGGLVQAGGSLRLSCAASGSTFPRYAMVWSRQAPGKESEYVAVNWSGGSTYYADSVKGRFTISRDNAKNTVYLQMNSLKPEDTAVYYCAAEYHTLSKYSGYATHDYWGQGTQVTVSS | low polyreactivity |
| QVQLQESGDGLVQAVGSLRLSCAASGYISGYYYMGWYRQAPGKERELVAGIDAFGSSTNYADCVKGRFTISRDNAKNTVYLQMNSLKPEDTAVYYCAARPDGYRLFSYWGQGTQVTVSS | low polyreactivity |
| QVQLVESGGGLVQTGGSLRLSCAASGRIFRSYAMGWNRQAPGKERELVAAISGSGGSTYYADSVKGRFTISRDNAKNTVSLQMNSLKPEDTAVYYCTAGKVHPFSTRFYYWGQGTQVTVSS | low polyreactivity |
| QVQLVESGGGLDQAGGSLRLSCAASGSIFQDYAMGWYRQAPGKERELVAAITKSGVSTYYADSVKGRFTISRDNAKNTVYLQMNSLKPEDTAVYYCAAPRYVRYHRGYGFDYWGQGTQVTVSS | low polyreactivity |
| QVQLVESGGGLVQAGGSLRLSCAASGFTNSMGWSTQAHGKERELVAAISYSGDSTNYADSVKGRFTISRDNAKNTVYLQMNSLKPEDTAVYYCNASSPYDYDWGQGTQVTVSS | low polyreactivity |
| QVQLVESGGGLVQAGGSLRLSCAASGSTFWYYAMGWYRQAPGKERELVAAINGSGSRTYYADSVKGRFTISRDNAKNTVYLQMNSLKPEDTAVYYCAAGSLGRYYFKLDYWGQGTQVTVSS | high polyreactivity |
| QVQLVESGGGLVQAGGSLRLSCAASGGTYVGYSMGWYRQAPGKERELDATITRRGGNTYYADSVKGRFTISRDNAKNTVYLQMNSLKPEDTAVYYCAARKKGSRVGYDYWGQGTQVTVSS | high polyreactivity |
| QGQLVESGGGLVQAGGSLRLSCAASGSTFTIYVMGWYRQAPGKERELVAGISWSGGSTYYTDSVKGRFTISRDNAKNTVYLQMNSLKPEDTAVYYCNADAQWSVWSYIIDYDYWGQGTQVTVPS | low polyreactivity |
